Earlier results, collected in paper PMC8160820.

Molecular target: PEDF-R (Homo sapiens) (UniProt Q96AD5)
UniProt Q96AD5, sequence (Q96AD5 whole entry): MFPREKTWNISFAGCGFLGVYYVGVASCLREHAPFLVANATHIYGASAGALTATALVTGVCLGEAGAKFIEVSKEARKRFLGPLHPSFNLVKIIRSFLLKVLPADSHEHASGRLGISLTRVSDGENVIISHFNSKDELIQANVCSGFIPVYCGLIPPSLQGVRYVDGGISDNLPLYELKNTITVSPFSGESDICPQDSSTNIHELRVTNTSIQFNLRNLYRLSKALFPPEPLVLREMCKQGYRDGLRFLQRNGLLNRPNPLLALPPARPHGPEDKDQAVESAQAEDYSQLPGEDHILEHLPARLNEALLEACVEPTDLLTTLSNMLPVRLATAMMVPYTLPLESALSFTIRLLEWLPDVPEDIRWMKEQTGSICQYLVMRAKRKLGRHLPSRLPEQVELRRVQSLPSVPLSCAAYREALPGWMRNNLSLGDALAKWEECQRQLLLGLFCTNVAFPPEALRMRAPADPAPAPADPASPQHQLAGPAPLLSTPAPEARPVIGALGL

Substance: PEDF (from UniProt P36955)
- Kd: 3 nM
